Experimental data taken from PMC3344845 (2012).

Molecular target: chicken avidin (Gallus gallus (Chicken), UniProt P02701)
Assay: ITC

Chain of chicken avidin (P02701 25-152): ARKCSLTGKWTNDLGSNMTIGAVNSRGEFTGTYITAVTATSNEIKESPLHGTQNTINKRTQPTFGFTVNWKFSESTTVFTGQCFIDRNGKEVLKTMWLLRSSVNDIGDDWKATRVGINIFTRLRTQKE

binding result: no binding
B1: Brad-tag (synthetic peptide SEKLSNTK) (protein)
chain: SEKLSNTK
